From the supplement of paper PMC7877785 come the findings set out here.

± gives the uncertainty stated by the source.

A short description of this data set: self-splicing fitness, log relative to wild type (ln ratio); higher = more splicing; Tetrahymena group I intron in knt gene, E. coli kanamycin selection, DiMSum; sequences stand for … in CUCUCU…GGAGGGAAAAGUUAUCAGGCAUGCACCUGGUAGCUAGUCUUUAAACCAAUAGAUUGCAUCGGUUUAAAAGGCAAGACCGUCAAAUUGCGGGAAAGGGGUCAACAGCCGUUCAGUACCAAGUCUCAGGGGAAACUUUGAGAUGGCCUUGCAAAGGGUAUGGUAAUAAGCUGACGGACAUGGUCCUAACCACGCAGCCAAGUCCUAAGUCAACAGAUCUUCUGUUGAUAUGGAUGCAGUUCACAGACUAAAUGUCGGUCGGGGAAGAUGUAUUCUUCUCAUAAGAUAUAGUCGGACCUCUCCUUAAUGGGAGCUAGCGGAUGAAGUGAUGCAACACUGGAGCCGCUGGGAACUAAUUUGUAUGCGAAAGUAUAUUGAUUAGUUUUGGAGUACUCGUGGUCG
The procedure, abridged: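 A randomised library covering all eight P1ex-region intron nucleotides was built with the intron in the knt kanamycin-resistance gene on pET-22b(+) and held in E. coli BL21(DE3). Cells were grown overnight at 37°C or 30°C on LB agar, with or without 25 μg/mL kanamycin, plus 100 μg/mL carbenicillin, 50 μM IPTG and 0.2% rhamnose, and pooled colonies were amplicon-sequenced on an Illumina HiSeq 2500. DiMSum fitness is the error-weighted combination of wild-type-normalised replicate fold changes, kanamycin versus none.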

For the sequence AUACAGCAAUAUUACGUGCU, the “self-splicing fitness (ln)” value was -3.03 ± 0.15 (30 °C) and -1.18 ± 0.12 (37 °C).
Regarding AUACAGCAAUAUUACGUGUG, the “self-splicing fitness (ln)” value (30 °C) is -1.73 ± 0.051 and the “self-splicing fitness (ln)” value (37 °C) was -0.977 ± 0.062.
For AUACAGCAAUAUUACGUUCU, the “self-splicing fitness (ln)” value was 0.212 ± 0.1 (30 °C) and -0.221 ± 0.12 (37 °C).
Turning to AUAGAGCAAUAUUACGAUAU, the “self-splicing fitness (ln)” value is, setting by setting: (30 °C) -0.196 ± 0.065; (37 °C) 1.04 ± 0.082.
AUAGAGCAAUAUUACGCAAA: the “self-splicing fitness (ln)” value (30 °C) is -2.79 ± 0.2 and the “self-splicing fitness (ln)” value (37 °C) was -1.03 ± 0.18.
With AUAGAGCAAUAUUACGCGUU, the “self-splicing fitness (ln)” value (30 °C) was -1.47 ± 0.12 and the “self-splicing fitness (ln)” value (37 °C) was -0.672 ± 0.13.
For AUAGAGCAAUAUUACGCUCU, the “self-splicing fitness (ln)” value was -2.65 ± 0.28 (30 °C) and -1.32 ± 0.42 (37 °C).
The like results for AUAGAGCAAUAUUACGGAUU were, in that order, -0.783 ± 0.091 and -0.15 ± 0.14.
Regarding AUAGAGCAAUAUUACGGUCG, the “self-splicing fitness (ln)” value was -1.65 ± 0.18 (30 °C) and -1.12 ± 0.23 (37 °C).
The like results for AUAGAGCAAUAUUACGUACG were, in that order, -2.22 ± 0.2 and -1.53 ± 0.23.
As for AUAGAGCAAUAUUACGUCAC, the “self-splicing fitness (ln)” value runs as follows: (30 °C) -1.53 ± 0.22; (37 °C) -0.0932 ± 0.22.
As to AUAGAGCAAUAUUACGUCGC, the “self-splicing fitness (ln)” value was -2.68 ± 0.2 (30 °C) and -0.381 ± 0.18 (37 °C).
In the case of AUAGAGCAAUAUUACGUCUU, the “self-splicing fitness (ln)” value reads like this: (30 °C) 0.446 ± 0.074; (37 °C) 0.419 ± 0.087.
Regarding AUAGAGCAAUAUUACGUUGG, the “self-splicing fitness (ln)” value was -4.04 ± 0.25 (30 °C) and -2.51 ± 0.19 (37 °C).
On to AUAGAGCAAUAUUACGUUUA, for which the “self-splicing fitness (ln)” value (30 °C) is -0.804 ± 0.13 and the “self-splicing fitness (ln)” value (37 °C) is -0.629 ± 0.14.
The like results for AUAGAGCAAUAUUACGUUUG were, in that order, -1.43 ± 0.11 and -2 ± 0.21.
Regarding AUAUAGCAAUAUUACGAACC, the “self-splicing fitness (ln)” value by setting is: (30 °C) -1 ± 0.27; (37 °C) 0.205 ± 0.24.
Regarding AUAUAGCAAUAUUACGAAGA, the “self-splicing fitness (ln)” value runs as follows: (30 °C) -2.16 ± 0.4; (37 °C) -1.98 ± 0.47.
The like results for AUAUAGCAAUAUUACGACAA were, in that order, -0.546 ± 0.21 and 0.567 ± 0.18.
The like results for AUAUAGCAAUAUUACGACCG were, in that order, -1.62 ± 0.22 and 0.433 ± 0.41.
The like results for AUAUAGCAAUAUUACGAGAA were, in that order, -1.72 ± 0.34 and -0.73 ± 0.36.
On to AUAUAGCAAUAUUACGAGCC, for which the “self-splicing fitness (ln)” value (30 °C) is -2.89 ± 0.32 and the “self-splicing fitness (ln)” value (37 °C) is -2.08 ± 0.37.
The like results for AUAUAGCAAUAUUACGAUAG were, in that order, -2.39 ± 0.22 and -1.51 ± 0.24.
The like results for AUAUAGCAAUAUUACGAUUC were, in that order, -1.29 ± 0.19 and -0.0451 ± 0.23.
AUAUAGCAAUAUUACGCACC: the “self-splicing fitness (ln)” value by setting is: (30 °C) -0.862 ± 0.2; (37 °C) -0.94 ± 0.18.
As for AUAUAGCAAUAUUACGCGCU, the “self-splicing fitness (ln)” value by setting is: (30 °C) 0.0604 ± 0.24; (37 °C) -0.878 ± 0.38.
The like results for AUAUAGCAAUAUUACGCGGA were, in that order, -1.65 ± 0.26 and -1.67 ± 0.17.
The like results for AUAUAGCAAUAUUACGCUAU were, in that order, -2.98 ± 0.27 and -0.715 ± 0.24.
For AUAUAGCAAUAUUACGCUGA, the “self-splicing fitness (ln)” value by setting is: (30 °C) -1.3 ± 0.2; (37 °C) -1.15 ± 0.24.
Turning to AUAUAGCAAUAUUACGGAUA, the “self-splicing fitness (ln)” value by setting is: (30 °C) -2.76 ± 0.31; (37 °C) -1.63 ± 0.3.
In the case of AUAUAGCAAUAUUACGGAUC, the “self-splicing fitness (ln)” value was -1.55 ± 0.2 (30 °C) and 0.109 ± 0.26 (37 °C).
The like results for AUAUAGCAAUAUUACGGCCU were, in that order, -0.457 ± 0.22 and -1.58 ± 0.39.
For the sequence AUAUAGCAAUAUUACGGGCU, the “self-splicing fitness (ln)” value is -2.22 ± 0.17 (30 °C) and -1.6 ± 0.21 (37 °C).
For AUAUAGCAAUAUUACGGGGU, the “self-splicing fitness (ln)” value by setting is: (30 °C) -2.23 ± 0.18; (37 °C) -2.25 ± 0.29.
The like results for AUAUAGCAAUAUUACGGGUA were, in that order, -2.09 ± 0.25 and -0.788 ± 0.19.
The like results for AUAUAGCAAUAUUACGUAAG were, in that order, -1.61 ± 0.14 and -0.705 ± 0.19.
The like results for AUAUAGCAAUAUUACGUACC were, in that order, -1.41 ± 0.2 and -0.927 ± 0.28.
Turning to AUAUAGCAAUAUUACGUCCU, the “self-splicing fitness (ln)” value (30 °C) is -0.548 ± 0.11 and the “self-splicing fitness (ln)” value (37 °C) was found to be 0.119 ± 0.12.
Regarding AUAUAGCAAUAUUACGUGAA, the “self-splicing fitness (ln)” value by setting is: (30 °C) -1.57 ± 0.28; (37 °C) -0.717 ± 0.33.
AUAUAGCAAUAUUACGUGAC: the “self-splicing fitness (ln)” value (37 °C) was -2.85 ± 0.32.
Regarding AUAUAGCAAUAUUACGUGUU, the “self-splicing fitness (ln)” value (30 °C) was -4.26 ± 0.39 and the “self-splicing fitness (ln)” value (37 °C) was -1.21 ± 0.18.
The like results for AUAUAGCAAUAUUACGUUAA were, in that order, -2.76 ± 0.23 and -3.36 ± 0.37.
The like results for AUAUAGCAAUAUUACGUUCA were, in that order, -0.388 ± 0.23 and -0.707 ± 0.23.
The like results for AUAUAGCAAUAUUACGUUGC were, in that order, -2.4 ± 0.19 and -1.25 ± 0.23.
For AUCAAGCAAUAUUACGAAUU, the “self-splicing fitness (ln)” value (30 °C) was -3.12 ± 0.14 and the “self-splicing fitness (ln)” value (37 °C) was -1.21 ± 0.14.
The like results for AUCAAGCAAUAUUACGAGUC were, in that order, -3.08 ± 0.23 and -2.19 ± 0.24.
Regarding AUCAAGCAAUAUUACGAUCG, the “self-splicing fitness (ln)” value (30 °C) was -3.37 ± 0.2 and the “self-splicing fitness (ln)” value (37 °C) was -3.55 ± 0.28.
On to AUCAAGCAAUAUUACGAUGC, for which the “self-splicing fitness (ln)” value is -2.01 ± 0.19 (30 °C) and -1.1 ± 0.23 (37 °C).
With AUCAAGCAAUAUUACGAUUU, the “self-splicing fitness (ln)” value (30 °C) was -0.487 ± 0.056 and the “self-splicing fitness (ln)” value (37 °C) was -0.186 ± 0.072.
The like results for AUCAAGCAAUAUUACGCCCG were, in that order, -0.965 ± 0.17 and -0.202 ± 0.2.
The like results for AUCAAGCAAUAUUACGCCUA were, in that order, -0.765 ± 0.11 and -0.646 ± 0.095.
For AUCAAGCAAUAUUACGGAAA, the “self-splicing fitness (ln)” value was -2.58 ± 0.24 (30 °C) and -1.7 ± 0.21 (37 °C).
In the case of AUCAAGCAAUAUUACGGAAG, the “self-splicing fitness (ln)” value was -2.78 ± 0.11 (30 °C) and -2.01 ± 0.12 (37 °C).
As for AUCAAGCAAUAUUACGGAUC, the “self-splicing fitness (ln)” value reads like this: (30 °C) -3.29 ± 0.25; (37 °C) -1.91 ± 0.21.
In the case of AUCAAGCAAUAUUACGGCCC, the “self-splicing fitness (ln)” value (30 °C) was -0.747 ± 0.31.
With AUCAAGCAAUAUUACGGCCU, the “self-splicing fitness (ln)” value reads like this: (30 °C) -0.508 ± 0.05; (37 °C) 0.15 ± 0.066.
The like results for AUCAAGCAAUAUUACGGCUA were, in that order, -0.209 ± 0.097 and 0.184 ± 0.11.
Regarding AUCAAGCAAUAUUACGGUUG, the “self-splicing fitness (ln)” value reads like this: (30 °C) -3.05 ± 0.25; (37 °C) -1.92 ± 0.19.
The like results for AUCAAGCAAUAUUACGUAAU were, in that order, -1.1 ± 0.056 and -0.247 ± 0.081.
The like results for AUCAAGCAAUAUUACGUAGU were, in that order, -2.22 ± 0.08 and -1.14 ± 0.097.
The like results for AUCAAGCAAUAUUACGUCAC were, in that order, -2.32 ± 0.16 and -2.28 ± 0.3.
As to AUCAAGCAAUAUUACGUCAU, the “self-splicing fitness (ln)” value runs as follows: (30 °C) -2.05 ± 0.088; (37 °C) -1.45 ± 0.088.
Regarding AUCAAGCAAUAUUACGUCGU, the “self-splicing fitness (ln)” value reads like this: (30 °C) -1.5 ± 0.052; (37 °C) -0.574 ± 0.071.
For AUCAAGCAAUAUUACGUGCC, the “self-splicing fitness (ln)” value is, setting by setting: (30 °C) -1.51 ± 0.14; (37 °C) -0.426 ± 0.16.
Take AUCAAGCAAUAUUACGUGCU: the “self-splicing fitness (ln)” value is, setting by setting: (30 °C) -2.33 ± 0.088; (37 °C) -1.7 ± 0.11.
The like results for AUCAAGCAAUAUUACGUGGC were, in that order, -4.3 ± 0.37 and -3.52 ± 0.35.
The like results for AUCCAGCAAUAUUACGAAUA were, in that order, -1.44 ± 0.13 and -0.957 ± 0.13.
For the sequence AUCCAGCAAUAUUACGAAUG, the “self-splicing fitness (ln)” value reads like this: (30 °C) -1.94 ± 0.12; (37 °C) -1.36 ± 0.11.
The like results for AUCCAGCAAUAUUACGACUG were, in that order, -3.86 ± 0.3 and -2.95 ± 0.28.
The like results for AUCCAGCAAUAUUACGAGAG were, in that order, -1.45 ± 0.098 and -1.05 ± 0.1.
In the case of AUCCAGCAAUAUUACGCAGG, the “self-splicing fitness (ln)” value was -2.84 ± 0.3 (30 °C) and -2.7 ± 0.37 (37 °C).
The like results for AUCCAGCAAUAUUACGCAUU were, in that order, -1.37 ± 0.064 and -0.265 ± 0.082.
Turning to AUCCAGCAAUAUUACGCCCG, the “self-splicing fitness (ln)” value runs as follows: (30 °C) -1.84 ± 0.38; (37 °C) -1.04 ± 0.37.
With AUCCAGCAAUAUUACGCUGC, the “self-splicing fitness (ln)” value runs as follows: (30 °C) -3.85 ± 0.19; (37 °C) -1.59 ± 0.15.
The like results for AUCCAGCAAUAUUACGGAGG were, in that order, -2.21 ± 0.097 and -0.607 ± 0.13.
